This series concerns the target T1, mtSSB (mitochondrial single-stranded DNA-binding protein) (human, UniProt Q04837 17-148).
T1 sequence: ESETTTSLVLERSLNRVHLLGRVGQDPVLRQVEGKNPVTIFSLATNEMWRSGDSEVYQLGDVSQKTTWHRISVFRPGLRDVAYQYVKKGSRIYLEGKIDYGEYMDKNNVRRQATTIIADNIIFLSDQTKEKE
Nature of the series: EMSA; 25 fmol DNA in 15 ul; no free template at tetramer:DNA 1:1 or higher; 10 mM Mg2+, 2 mM ATP; 20 mM Tris-HCl pH 8.0, 10 mM MgCl2, 100 ug/ml BSA, 1 mM DTT, 2 mM ATP, 10% glycerol, 15 min at room temperature; 10% native PAGE in 1x TBE. The conditions noted are these: protein: recombinant; chain copies: 4; label: 5'-32P; single strand, unstructured. In general terms: A gel shift assay detects complexes by their altered migration in electrophoresis.

On to AACACCAGCAGAACTTTTTTAACAAGCAACACACAGAAGACA (ssDNA) [6-dT (no predicted secondary structure; no stem)], for which the binding result is given as “binds”.
